Test [1] has as its target T1, human MERTK expressed on cells (SKMEL5 melanoma cells; in vitro differentiated M2 macrophages) (human, UniProt Q12866 21-999).
T1 construct: Endogenous MERTK of human cells; also called surface MERTK
T1 sequence: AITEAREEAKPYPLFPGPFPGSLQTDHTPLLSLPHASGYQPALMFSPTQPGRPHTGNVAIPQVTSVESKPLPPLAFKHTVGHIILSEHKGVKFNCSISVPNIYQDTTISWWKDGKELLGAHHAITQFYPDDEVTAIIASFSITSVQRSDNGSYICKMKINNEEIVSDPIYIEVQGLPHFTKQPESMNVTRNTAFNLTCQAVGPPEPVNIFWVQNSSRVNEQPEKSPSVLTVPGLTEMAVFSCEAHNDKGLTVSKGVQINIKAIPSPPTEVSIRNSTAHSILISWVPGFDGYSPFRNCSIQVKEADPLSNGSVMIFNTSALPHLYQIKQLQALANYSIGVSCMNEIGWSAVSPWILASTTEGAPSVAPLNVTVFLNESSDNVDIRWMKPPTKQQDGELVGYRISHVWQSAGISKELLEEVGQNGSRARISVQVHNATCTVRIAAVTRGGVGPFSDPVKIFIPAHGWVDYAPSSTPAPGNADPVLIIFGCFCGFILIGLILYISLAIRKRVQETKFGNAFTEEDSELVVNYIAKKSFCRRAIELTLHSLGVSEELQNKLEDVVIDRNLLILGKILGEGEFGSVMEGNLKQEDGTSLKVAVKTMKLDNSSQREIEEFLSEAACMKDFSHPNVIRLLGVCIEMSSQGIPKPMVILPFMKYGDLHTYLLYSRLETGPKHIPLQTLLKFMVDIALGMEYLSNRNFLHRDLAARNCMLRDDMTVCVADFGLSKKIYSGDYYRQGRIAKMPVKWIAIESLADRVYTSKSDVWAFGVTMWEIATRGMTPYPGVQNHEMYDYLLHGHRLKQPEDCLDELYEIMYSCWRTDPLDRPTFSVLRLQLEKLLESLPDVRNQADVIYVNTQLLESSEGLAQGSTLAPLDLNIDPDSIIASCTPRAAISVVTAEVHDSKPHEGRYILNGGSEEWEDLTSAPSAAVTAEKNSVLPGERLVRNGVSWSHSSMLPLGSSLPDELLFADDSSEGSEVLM
In words: flow cytometry, APC-labeled z10 on MERTK-expressing SKMEL5 melanoma cells. As for the experimental part: SKMEL5 cells were harvested with trypsin, washed twice with PBS and strained through a 70 µm filter. 50,000 cells were resuspended in 60 μL FACS buffer (2% BSA, 10 mM EDTA, 25 mM HEPES, 0.1% sodium azide in Ca/Mg-free PBS) containing 10% human AB serum (Sigma, H4522). […] The APC signals from live single cells were analyzed in FlowJo and the MFIs were plotted with GraphPad Prism. Single color control samples were used to create a compensation matrix.
On the technique in general: A flow cytometer gives signals particle by particle.

Test [2] deals with T2, rhMer/Fc Chimera (recombinant human MERTK extracellular domain conjugated to an IgG Fc domain) (human, UniProt Q12866 21-505).
T2 construct: extracellular domain; also called hMER recombinant protein; Mer-Fc conjugate; not shown: IgG Fc domain
T2 sequence (looked up): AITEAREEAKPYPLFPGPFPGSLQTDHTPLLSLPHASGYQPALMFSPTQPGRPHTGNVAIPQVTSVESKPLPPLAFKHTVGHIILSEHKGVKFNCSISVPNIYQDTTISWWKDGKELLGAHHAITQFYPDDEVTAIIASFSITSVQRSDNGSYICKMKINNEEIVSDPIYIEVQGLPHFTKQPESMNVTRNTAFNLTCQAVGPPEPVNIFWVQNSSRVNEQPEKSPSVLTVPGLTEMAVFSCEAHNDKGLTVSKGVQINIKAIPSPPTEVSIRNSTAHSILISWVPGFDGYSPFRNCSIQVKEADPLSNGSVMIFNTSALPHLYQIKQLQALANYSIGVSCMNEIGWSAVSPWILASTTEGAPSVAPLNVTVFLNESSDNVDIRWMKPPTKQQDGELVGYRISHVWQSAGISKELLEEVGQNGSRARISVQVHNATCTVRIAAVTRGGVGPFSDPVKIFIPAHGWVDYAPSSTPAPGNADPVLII
The test is described as follows: SPR, avidity format: rhMer/Fc Chimera immobilised on CM5 chip, antibody as analyte, 1:1 fit. As for the experimental part:
With respect to avidity and affinity measurements using SPR, the protocols below were used.
The activator was prepared with a mixture of 400 mM EDC and 100 mM NHS immediately prior to injection. The CM5 sensor chip was activated for 420 s with the mixture. […] The chip was deactivated by 1 M ethanolamine-HCl. […] 8 concentrations (0.3125, 0.625, 1.25, 2.5, 5, 10, 20 and 40 nM) of the antibodies and running buffer were injected at a flow rate of 30 μL/min for an association phase of 240 s, followed by 4800 s dissociation. 10 mM glycine pH 1.5 as regeneration buffer was injected following every dissociation phase. The chip was regenerated with 10 mM glycine pH 1.5. One surface channel without capturing ligand was used as control surface for reference subtraction. Final data of each interaction was deducted from reference channel and buffer channel data. […] A molecular weight of 150 kDa was used to calculate the molar concentration of the antibodies.
Background: In SPR one partner is held on a chip, and binding of the other changes the refractive index at the surface.

B1: z10 antibody (antibody, human IgG1, kappa, V domains shown)
VH: QVQLVQSGAEVKKPGASVKVSCKASGYTFTNYGMNWVRQAPGQGLEWMGWINTYTGEPTYADDFKGRVTFTTDTSTSTAYMELRSLRSDDMAVYYCARKSTVVSRYFDVWGQGTTVTVSS
VL: DIQMTQSPSFLSASVGDRVTITCKASQDVGDAVTWYQQKPGKAPKLLIYWASTRHTGVPDRFSGSGSGTDFTLTISSLQPEDFATYYCQQYRSYPLTFGQGTKLEIKR
notes: also called MERTK (z10) antibody
In the case of B1, the response in test [1] was half-maximal at 6.7 nM (EC50). The Kd in test [2] came out at 0.00574 nM.

Values taken from patent US20200291135A1 (INSPIRNA, published 2020).
